Measured values: the DeepSol protein solubility set

Assay: soluble on expression in E. coli; label from the status in PepcDB or PDB records
With “MLKREMNIADYDAELWQAMEQEKVRQEEHIELIASENYTSPRVMQAQGSQLTNKYAEGYPGKRYYGGCEYVDVVEQLAIDRAKELFGADYANVQPHSGSQANFAVYTALLQPGDTVLGMNLAQGGHLTHGSPVNFSGKLYNIVPYGIDESGKIDYDEMAKLAKEHKPKMIIGGFSAYSGVVDWAKMREIADSIGAYLFVDMAHVAGLIAAGVYPNPVPHAHVVTTTTHKTLAGPRGGLILAKGGDEELYKKLNSAVFPSAQGGPLMHVIAGKAVALKEAMEPEFKVYQQQVAKNAKAMVEVFLNRGYKVVSGGTENHLFLLDLVDKNLTGKEADAALGRANITVNKNSVPNDPKSPFVTSGIRIGSPAVTRRGFKEAEVKELAGWMCDVLDNINDEATIERVKAKVLDICARFPVYA” the “soluble on expression in E. coli” value was “not soluble”. For “MPRKKSAGPRSFGEPLTDDPDDAPELLDEFFRTGEIRVDGKIVRRGRPPLGTQPKSSVTLRLDADVLDAYRALGRGWQSQINADLRRVRKLKKA”, the “soluble on expression in E. coli” value was “not soluble”. With “MSLKINAILDQSNASAEKVDAYQVQLTNGISEAKNIADEAGKEAVQIATDAGNQANETANQAMNNAKTAIMIAGNAVSTANNNKQEFDTLRNDFDQLVAEAGDSNPEIVQARTDTQGIKQATLANRLQIDLNDRMTKADGISLLAKPTTVKMKLDFNGKTAGNTATNANSYSTDFTAKILKKPTEVWEEVSQADYNKMASRDDEGVKTGSTQSGVIPQQLAAFNLVEAAKKLIPQMFETVTTDEAVAFIRQNVQFFTINQRVKAAAPNNQTIKIATYLPTTDNWVTQIQESAKEFGDFSIQINDQNFITDEGFIYLMSYTDSSNGVTPASLEVDYVGLHIGLSVDAQAVLAKSGFVQAEQLNTHMENQDNPHQVTAEQVGLGNVENYGFASDSEAVAGTLTSKYMHPKNVAEAIKGQAVTQTGDQEIAGVKNFVTMPTVNGVPLESSRMAIYEASGVGEVEAKYQAAFNKDNMKFVLIRVGNRVDAFVRCNLSDPTKLNNNLVKVFTVPTGYTLSTKITKGIWNLALTAMQYTFPQPNCAGLYEMGNQGILFGANRAGNIYLQGSWYTDDPFPTKEGHHHHHH” the “soluble on expression in E. coli” value was “soluble”. In the case of “MANHPRAGQPAQQSDLINVAQLTSQYYVLQPDAEDPAHAVKFGTSGHRGSSVRHSFNEAHILAIAQAIAEVRHQHGISGPCYVGKDTHALSEPAFISVLEVLTANGVDVVVQQDNGFTPTPAISHVILCHNAQGKALADGIVITPSHNPPEDGGIKYNPPNGGPADTNLTSVIEKRANQLLSQNLKGVKRQTLDKAWQSNHLREQDLLQPYVEGLVDVVDIPAIQQAGLKLGVDPLGGSGIAYWQRIAEYYKLDLTLVNNAIDQTFRFMHLDHDGVIRMDCSSESAMAGLLALRDKFDLAFANDPDYDRHGIVTPAGLMNPNHYLAVSINYLFQHRPQWGAGVAVGKTLVSSAMIDRVVADLGRKLVEVPVGFKWFVDGLHDGSFGFGGEESAGASFLRFNGTPWSTDKDGIIMCLLAAEITAVTGKDPQRHYDDLAQRFGAPSYNRIQAPATQAQKNALSRLSPEMVKANTLAGDPITARLTNAPGNGASIGGLKVMTENGWFAARPSGTEEAYKIYCESFLGAEHREKIEQEAVKIVSEVLAEAK”, the “soluble on expression in E. coli” value was “not soluble”. With “MAHHHHHHMRPSFGSLDYNVLSNFCEKLFLAADKNDRNEVITKKTLQMFFTSKIFYEILNHFKNLSTEENKKYVYAKYKTIYLKKCFDNNITPEPGSPKNEDAVSEVDNKIDDEDKEEEEQITNDKYEHYEENNNDYYKGREKIGTQSKGTEDSVDFNLSLKHAQYAVNGIIKIIYIPRYSETRAQIIPFIFRIIFFFNGEEETKNIGYII” the “soluble on expression in E. coli” value was “not soluble”. In the case of “MGSDKIHHHHHHMKNKIGSFVIADPNKCTGCRACEVACFTMHNQHNNVGYTVGTVDIPVIPRLYLVKGDNFCMPIQCRHCEDAPCLNSCPQKAIVKENNIMSVNEEKCIGCKTCLLACPFGAIDLLPQYEDGKEVEQVILDENKKIAYKCDLCKDNEKIACISACPQKALKLVTPIDDKKAKNRQAALSLLLTNK”, the “soluble on expression in E. coli” value was “not soluble”. For “MAEIHYLISDASKKVDVEAHVLRYWEEELELPIPRNDMGHRYYTDFHIRLFKQVKVLKEKGYQLKAIKTALAKSLQDGKVIIPSEVLEEDVIAALKETGIGEQDMKEQKGNENKNGEKRADEKVKDGQACEGGGEAGLTALDKDSVEALLAGEKMEQFQKVMNHIIGRAMEENSEKLSQDISYLVHDKLMKEMEYLMRVSDEREEERFKQLDEVIRAYQRDNQGRAEAAASVTGFPFFRFKKKKFGRNGNKL”, the “soluble on expression in E. coli” value was “not soluble”.
